In patent US20110045570:

Legend:
[1] = biological target: T1, N-carbobenzoxy-Pro-citrulline-p-nitroanilide
T1 chain: P

[2] = biological target: T2, N-carboxybenzoxy-Phe-Val-Arg-p-nitroanilide
T2 chain: FVR

[3] = biological target: T3, N-glutaryl-Ala-Ala-Pro-Leu-p-nitroanilide
T3 chain: AAPL

[4] = biological target: T4, N-methoxysuccinyl-Ala-Ile-Pro-Met-p-nitroanilide
T4 chain: AIPM

[5] = biological target: T5, N-p-tosyl-Gly-Pro-Lys-p-nitroanilide
T5 chain: GPK

[6] = biological target: T6, N-succinyl-Ala-Ala-Ala-p-nitroanilide
T6 chain: AAA

[7] = biological target: T7, N-succinyl-Ala-Ala-Pro-Met-p-nitroanilide
T7 chain: AAPM

[8] = biological target: T8, N-succinyl-Ala-Ala-Pro-Phe-p-nitroanilide
T8 chain: AAPF

[9] = biological target: T9, N-succinyl-Ala-Ala-Val-Ala-p-nitroanilide
T9 chain: AAVA

[10] = biological target: T10, N-succinyl-Ala-Ala-p-nitroanilide
T10 chain: AA

[11] = biological target: T11, N-succinyl-Gly-Gly-Phe-p-nitroanilide
T11 chain: GGF

[12] = biological target: acidic insulin B-chain
[13] = biological target: T12, butyroxycarboxy-Leu-Ser-Thr-Arg-p-nitroanilide
T12 chain: LSTR

B1: alkaline protease ALTP (protein)
chain: AQSTPWGVTRVQAPNVWNRGFTGSGVRVAVLDTGIHSSHEDLTVSGGYSVFGDSPYNDVQGHGTHVAGTIAARNNSVGVIGVAYNAQLYAVKVLNNQGSGTLAGIAQGIEWARQNNMHVINMSLGGTSGSTTLQNAVNAAYNAGILVVAAAGNSGNSAGTGDNVGFPARYPNAMAVAATTSGNVRASFSSTGPAVEIAAPGQDINSTYPTNTYRSLNGTSMAAPHVAGVAALLKSARPAVTAAGIRNAMNSTALNLGNSNWYGNGLVRANNALDMVLSY
- activity to synthetic substrate (p-nitroaniline liberated) [1]: It showed activity to ... N-carbobenzoxy-Pro-citrulline-p-nitroanilide (CBZ-Pro-Cit)
- activity to synthetic substrate (p-nitroaniline liberated) [2]: It showed activity to ... N-carboxybenzoxy-Phe-Val-Arg-p-nitroanilide (Z-FVR)
- Relative activity (%) [3]: 91%
- Relative activity (%) [4]: 90%
- activity to synthetic substrate (p-nitroaniline liberated) [5]: It showed activity to ... N-p-tosyl-Gly-Pro-Lys-p-nitroanilide (To-GPK)
- activity to synthetic substrate (p-nitroaniline liberated) [6]: It showed activity to ... N-succinyl-Ala-Ala-Ala-p-nitroanilide (AAA)
- Relative activity (%) [7]: 74%
- Relative activity (%) [8]: 100%
- Relative activity (%) [9]: 4.6%
- activity to synthetic substrate (p-nitroaniline liberated) [10]: It showed activity to ... N-succinyl-Ala-Ala-p-nitroanilide (AA)
- activity to synthetic substrate (p-nitroaniline liberated) [11]: It showed activity to ... N-succinyl-Gly-Gly-Phe-p-nitroanilide (GGF)
- initial cleavage site (LC/MS/MS of digestion fragments) [12]: alkaline protease ALTP of the invention first cleaves Leu-Tyr
- peptide bonds cleaved within 24 hours (300 ng enzyme, LC/MS/MS) [12]: 26 peptide bonds of 29 peptide bonds except Phe-Val and Thr-Pro-Lys bonds are cleaved within 24 hours
- activity to synthetic substrate (p-nitroaniline liberated) [13]: It showed activity to, besides the foregoing synthetic substrates, butyroxycarboxy-Leu-Ser-Thr-Arg-p-nitroanilide (LSTR)
